Data published in patent US20240132485A1, “HETEROCYCLIC CULLIN RING UBIQUITIN LIGASE COMPOUNDS AND USES THEREOF” (CEMM - FORSCHUNGSZENTRUM FÜR MOLEKULARE MEDIZIN GMBH, priority 2020, published 2024).

What was measured:
[1] = target: Nanoluc_DDB1 (N-terminal Nanoluc luciferase, G4S linker, DDB1 (FL)) (UniProt Q16531); experiment: NanoBRET in HEK293T cells, 10 µM compound Example 3-9; class A = greater than 4-fold increase
[2] = target: Nanoluc_DDB1 (N-terminal Nanoluc luciferase, G4S linker, DDB1 (FL)) (UniProt Q16531); experiment: NanoBRET in HEK293T cells, 10 µM compound Example 3-29; class B = 3-4 fold increase
[3] = target: Nanoluc_DDB1 (N-terminal Nanoluc luciferase, G4S linker, DDB1 (FL)) (UniProt Q16531); experiment: NanoBRET in HEK293T cells, 10 µM compound Example 3-8; class A = greater than 4-fold increase
[4] = target: Nanoluc_DDB1 (N-terminal Nanoluc luciferase, G4S linker, DDB1 (FL)) (UniProt Q16531); experiment: NanoBRET in HEK293T cells, 10-point titration of compound Example 3-1; class A = EC50<=0.25 µM
[5] = target: Nanoluc_DDB1 (N-terminal Nanoluc luciferase, G4S linker, DDB1 (FL)) (UniProt Q16531); experiment: NanoBRET in HEK293T cells, 10 µM compound Example 3-50; class A = greater than 4-fold increase
[6] = target: Nanoluc_DDB1 (N-terminal Nanoluc luciferase, G4S linker, DDB1 (FL)) (UniProt Q16531); experiment: NanoBRET in HEK293T cells, 10-point titration of compound Example 3-59; class E = >10 µM
[7] = target: Nanoluc_DDB1 (N-terminal Nanoluc luciferase, G4S linker, DDB1 (FL)) (UniProt Q16531); experiment: NanoBRET in HEK293T cells, 10 µM compound Example 3-26; class C = 2-3 fold increase
[8] = target: Nanoluc_DDB1 (N-terminal Nanoluc luciferase, G4S linker, DDB1 (FL)) (UniProt Q16531); experiment: NanoBRET in HEK293T cells, 10 µM compound Example 3-13; class B = 3-4 fold increase
[9] = target: Nanoluc_DDB1 (N-terminal Nanoluc luciferase, G4S linker, DDB1 (FL)) (UniProt Q16531); experiment: NanoBRET in HEK293T cells, 10 µM compound Example 3-51; class B = 3-4 fold increase
[10] = target: Nanoluc_DDB1 (N-terminal Nanoluc luciferase, G4S linker, DDB1 (FL)) (UniProt Q16531); experiment: NanoBRET in HEK293T cells, 10 µM compound Example 3-37; class C = 2-3 fold increase
[11] = target: Nanoluc_DDB1 (N-terminal Nanoluc luciferase, G4S linker, DDB1 (FL)) (UniProt Q16531); experiment: NanoBRET in HEK293T cells, 10-point titration of compound Example 3-9; class A = EC50<=0.25 µM
[12] = target: Nanoluc_DDB1 (N-terminal Nanoluc luciferase, G4S linker, DDB1 (FL)) (UniProt Q16531); experiment: NanoBRET in HEK293T cells, 10 µM compound Example 3-15; class D = 1-2 fold increase
[13] = target: Nanoluc_DDB1 (N-terminal Nanoluc luciferase, G4S linker, DDB1 (FL)) (UniProt Q16531); experiment: NanoBRET in HEK293T cells, 10 µM compound Example 3-4; class A = greater than 4-fold increase
[14] = target: Nanoluc_DDB1 (N-terminal Nanoluc luciferase, G4S linker, DDB1 (FL)) (UniProt Q16531); experiment: NanoBRET in HEK293T cells, 10 µM compound Example 3-44; class A = greater than 4-fold increase
[15] = target: Nanoluc_DDB1 (N-terminal Nanoluc luciferase, G4S linker, DDB1 (FL)) (UniProt Q16531); experiment: NanoBRET in HEK293T cells, 10 µM compound Example 3-1; class B = 3-4 fold increase
[16] = target: Nanoluc_DDB1 (N-terminal Nanoluc luciferase, G4S linker, DDB1 (FL)) (UniProt Q16531); experiment: NanoBRET in HEK293T cells, 10 µM compound Example 3-55; class B = 3-4 fold increase
[17] = target: Nanoluc_DDB1 (N-terminal Nanoluc luciferase, G4S linker, DDB1 (FL)) (UniProt Q16531); experiment: NanoBRET in HEK293T cells, 10 µM compound Example 3-19; class A = greater than 4-fold increase
[18] = target: Nanoluc_DDB1 (N-terminal Nanoluc luciferase, G4S linker, DDB1 (FL)) (UniProt Q16531); experiment: NanoBRET in HEK293T cells, 10 µM compound Example 3-12; class D = 1-2 fold increase
[19] = target: Nanoluc_DDB1 (N-terminal Nanoluc luciferase, G4S linker, DDB1 (FL)) (UniProt Q16531); experiment: NanoBRET in HEK293T cells, 10 µM compound Example 3-38; class B = 3-4 fold increase
[20] = target: Nanoluc_DDB1 (N-terminal Nanoluc luciferase, G4S linker, DDB1 (FL)) (UniProt Q16531); experiment: NanoBRET in HEK293T cells, 10 µM compound Example 3-43; class A = greater than 4-fold increase
[21] = target: Nanoluc_DDB1 (N-terminal Nanoluc luciferase, G4S linker, DDB1 (FL)) (UniProt Q16531); experiment: NanoBRET in HEK293T cells, 10 µM compound Example 3-40; class B = 3-4 fold increase
[22] = target: Nanoluc_DDB1 (N-terminal Nanoluc luciferase, G4S linker, DDB1 (FL)) (UniProt Q16531); experiment: NanoBRET in HEK293T cells, 10 µM compound Example 3-14; class A = greater than 4-fold increase
[23] = target: Nanoluc_DDB1 (N-terminal Nanoluc luciferase, G4S linker, DDB1 (FL)) (UniProt Q16531); experiment: NanoBRET in HEK293T cells, 10 µM compound Example 3-28; class B = 3-4 fold increase
[24] = target: Nanoluc_DDB1 (N-terminal Nanoluc luciferase, G4S linker, DDB1 (FL)) (UniProt Q16531); experiment: NanoBRET in HEK293T cells, 10 µM compound Example 3-7; class B = 3-4 fold increase
[25] = target: Nanoluc_DDB1 (N-terminal Nanoluc luciferase, G4S linker, DDB1 (FL)) (UniProt Q16531); experiment: NanoBRET in HEK293T cells, 10 µM compound Example 3-16; class C = 2-3 fold increase
[26] = target: Nanoluc_DDB1 (N-terminal Nanoluc luciferase, G4S linker, DDB1 (FL)) (UniProt Q16531); experiment: NanoBRET in HEK293T cells, 10 µM compound Example 3-58; class C = 2-3 fold increase

Nanoluc_DDB1 (N-terminal Nanoluc luciferase, G4S linker, DDB1 (FL)), sequence (Q16531 other isoform, or with tags, fused parts or gaps): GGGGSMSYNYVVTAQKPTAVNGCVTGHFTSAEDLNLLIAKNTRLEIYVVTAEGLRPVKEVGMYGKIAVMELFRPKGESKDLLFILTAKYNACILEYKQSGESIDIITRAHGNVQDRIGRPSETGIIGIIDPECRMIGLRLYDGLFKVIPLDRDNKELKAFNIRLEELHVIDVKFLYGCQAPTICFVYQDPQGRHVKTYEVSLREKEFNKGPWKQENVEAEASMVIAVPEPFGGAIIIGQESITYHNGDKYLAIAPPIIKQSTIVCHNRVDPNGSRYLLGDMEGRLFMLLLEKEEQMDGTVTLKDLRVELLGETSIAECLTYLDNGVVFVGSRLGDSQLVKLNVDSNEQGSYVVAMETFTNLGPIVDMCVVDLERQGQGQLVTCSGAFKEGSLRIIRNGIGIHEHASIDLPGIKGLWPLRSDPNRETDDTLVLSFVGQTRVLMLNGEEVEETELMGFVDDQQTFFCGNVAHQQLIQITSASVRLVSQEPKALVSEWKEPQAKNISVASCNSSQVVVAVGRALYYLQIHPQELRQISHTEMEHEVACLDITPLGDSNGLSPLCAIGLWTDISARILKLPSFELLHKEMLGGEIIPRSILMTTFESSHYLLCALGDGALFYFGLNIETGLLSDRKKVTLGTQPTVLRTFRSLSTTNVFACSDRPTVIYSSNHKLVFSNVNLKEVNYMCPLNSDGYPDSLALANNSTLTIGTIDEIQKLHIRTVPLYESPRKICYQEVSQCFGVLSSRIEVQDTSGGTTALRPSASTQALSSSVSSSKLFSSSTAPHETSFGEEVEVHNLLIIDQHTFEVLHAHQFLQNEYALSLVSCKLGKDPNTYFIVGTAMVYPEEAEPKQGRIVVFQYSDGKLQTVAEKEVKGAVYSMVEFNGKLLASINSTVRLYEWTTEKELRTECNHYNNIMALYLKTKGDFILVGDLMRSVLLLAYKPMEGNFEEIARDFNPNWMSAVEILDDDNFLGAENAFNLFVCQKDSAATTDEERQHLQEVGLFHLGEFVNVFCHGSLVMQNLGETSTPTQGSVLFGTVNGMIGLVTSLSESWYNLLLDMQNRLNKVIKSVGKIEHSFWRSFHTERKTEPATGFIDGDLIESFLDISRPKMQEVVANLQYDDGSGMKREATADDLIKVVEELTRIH

- NanoBRET fold increase [1]: > 4 fold
- NanoBRET fold increase [2]: 3 to 4 fold
- NanoBRET fold increase [3]: > 4 fold
- EC50 [4]: < 0.25 µM
- NanoBRET fold increase [5]: > 4 fold
- EC50 [6]: > 10 µM
- NanoBRET fold increase [7]: 2 to 3 fold
- NanoBRET fold increase [8]: 3 to 4 fold
- NanoBRET fold increase [9]: 3 to 4 fold
- NanoBRET fold increase [10]: 2 to 3 fold
- EC50 [11]: < 0.25 µM
- NanoBRET fold increase [12]: 1 to 2 fold
- NanoBRET fold increase [13]: > 4 fold
- NanoBRET fold increase [14]: > 4 fold
- NanoBRET fold increase [15]: 3 to 4 fold
- NanoBRET fold increase [16]: 3 to 4 fold
- NanoBRET fold increase [17]: > 4 fold
- NanoBRET fold increase [18]: 1 to 2 fold
- NanoBRET fold increase [19]: 3 to 4 fold
- NanoBRET fold increase [20]: > 4 fold
- NanoBRET fold increase [21]: 3 to 4 fold
- NanoBRET fold increase [22]: > 4 fold
- NanoBRET fold increase [23]: 3 to 4 fold
- NanoBRET fold increase [24]: 3 to 4 fold
- NanoBRET fold increase [25]: 2 to 3 fold
- NanoBRET fold increase [26]: 2 to 3 fold
Substance: HaloTag_CDK12 (N-terminal HaloTag, G4S linker, CDK12 (713-1052)) (from UniProt Q9NYV4 713-1052) (enzyme)
